The target of one test is purified recombinant human insulin receptor-exon 11 (human) (UniProt P06213). Description: competition with 125I-insulin (SPA).
Chain of purified recombinant human insulin receptor-exon 11 (human) (P06213 other isoform, or with tags, fused parts or gaps limits assumed, form in doubt): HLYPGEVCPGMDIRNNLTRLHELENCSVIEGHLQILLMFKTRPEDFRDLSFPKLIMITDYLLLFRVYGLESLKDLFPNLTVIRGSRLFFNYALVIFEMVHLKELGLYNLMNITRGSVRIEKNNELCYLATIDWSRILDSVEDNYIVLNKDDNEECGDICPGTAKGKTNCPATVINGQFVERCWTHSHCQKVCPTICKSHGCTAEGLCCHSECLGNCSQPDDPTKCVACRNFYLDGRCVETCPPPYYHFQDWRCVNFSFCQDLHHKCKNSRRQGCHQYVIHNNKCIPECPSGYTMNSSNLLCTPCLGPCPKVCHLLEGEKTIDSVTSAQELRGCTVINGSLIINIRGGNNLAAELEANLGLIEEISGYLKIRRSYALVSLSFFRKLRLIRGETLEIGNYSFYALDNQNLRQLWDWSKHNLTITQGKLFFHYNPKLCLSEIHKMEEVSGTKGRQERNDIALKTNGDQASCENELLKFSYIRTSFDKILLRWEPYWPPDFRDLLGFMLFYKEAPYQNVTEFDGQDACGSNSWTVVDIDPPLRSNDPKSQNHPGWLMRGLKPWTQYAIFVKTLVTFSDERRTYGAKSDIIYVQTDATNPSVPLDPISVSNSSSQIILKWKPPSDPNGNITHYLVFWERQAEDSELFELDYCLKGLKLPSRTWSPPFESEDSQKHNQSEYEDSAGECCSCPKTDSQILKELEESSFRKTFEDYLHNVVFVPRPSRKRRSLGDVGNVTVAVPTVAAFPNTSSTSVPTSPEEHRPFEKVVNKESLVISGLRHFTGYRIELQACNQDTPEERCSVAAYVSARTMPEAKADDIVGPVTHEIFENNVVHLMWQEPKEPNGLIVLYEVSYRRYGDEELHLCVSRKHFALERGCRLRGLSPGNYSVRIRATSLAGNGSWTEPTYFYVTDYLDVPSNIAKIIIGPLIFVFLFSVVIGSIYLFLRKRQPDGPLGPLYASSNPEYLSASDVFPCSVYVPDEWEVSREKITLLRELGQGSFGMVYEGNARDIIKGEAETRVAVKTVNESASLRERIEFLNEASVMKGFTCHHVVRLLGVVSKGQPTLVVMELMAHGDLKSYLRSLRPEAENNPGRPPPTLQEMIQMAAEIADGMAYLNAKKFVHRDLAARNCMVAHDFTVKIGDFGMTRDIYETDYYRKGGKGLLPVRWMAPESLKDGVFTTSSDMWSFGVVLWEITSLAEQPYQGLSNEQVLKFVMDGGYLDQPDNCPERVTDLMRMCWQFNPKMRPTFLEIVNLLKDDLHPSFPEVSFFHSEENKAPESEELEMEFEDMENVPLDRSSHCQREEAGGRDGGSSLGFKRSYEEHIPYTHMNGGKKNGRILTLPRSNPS
On to “single-chain insulin PAK 1817, connecting peptide AGRGSGK [A21G] (from UniProt P01308 25-53; P01308 90-110) (ligand)”, for which the IR, binding relative to human insulin is 63%.

As for “single-chain insulin PAK 1877, connecting peptide TGLGSGK [B28D_A18Q] (from UniProt P01308 25-53; P01308 90-110) (ligand)”, the IR, binding relative to human insulin came out at 140%. In the case of “single-chain insulin PAK 1796, connecting peptide AWSGSGK [A18Q_A21G] (from UniProt P01308 25-53; P01308 90-110) (ligand)”, the IR, binding relative to human insulin was determined as 102%.

With “single-chain insulin PAK 1769040, connecting peptide VVGSSSGK [A18Q_A21G] (from UniProt P01308 25-53; P01308 90-110) (ligand)”, the IR, binding relative to human insulin turned out to be 29%. On the same count and under the same terms, for “single-chain insulin PAK 1876, connecting peptide VGLSSGQ [B27K_B29A_A18Q] (from UniProt P01308 25-53; P01308 90-110) (ligand)” the value was 38%. On to “single-chain insulin PAK 1805, connecting peptide AGRGSGK [B3Q_A18Q_A21G] (from UniProt P01308 25-53; P01308 90-110) (ligand)”, for which the IR, binding relative to human insulin was determined as 83%.

Take “single-chain insulin PAK 1734, connecting peptide VGLSSGK [A21G] (from UniProt P01308 25-53; P01308 90-110) (ligand)”: the IR, binding relative to human insulin was 211%.

As for “single-chain insulin PAK 1791, connecting peptide HGLYSGK [A18Q_A21G] (from UniProt P01308 25-53; P01308 90-110) (ligand)”, the IR, binding relative to human insulin amounted to 226%.

Consider “single-chain insulin PAK 1860, connecting peptide VGSSSGK [B3K_A18Q_A21G] (from UniProt P01308 25-53; P01308 90-110) (ligand)”, for which the IR, binding relative to human insulin is 83%. The same measure, in the same setting: for “single-chain insulin PAK 1891, connecting peptide TGLGSGQ [B10A_A18Q] (from UniProt P01308 25-53; P01308 90-110) (ligand)” the value was 34%; for “single-chain insulin PAK 1866, connecting peptide VGLSSGQ [A18Q] (from UniProt P01308 25-53; P01308 90-110) (ligand)”, 196%; for “single-chain insulin PAK 1769015, connecting peptide EVGSSSGK [A18Q_A21G] (from UniProt P01308 25-53; P01308 90-110) (ligand)”, 42%. Consider “single-chain insulin PAK 1812, connecting peptide TGLGRGK [A18Q_A21G] (from UniProt P01308 25-53; P01308 90-110) (ligand)”, for which the IR, binding relative to human insulin turned out to be 118%. As to “single-chain insulin PAK 1893, connecting peptide TGLGSGQ [B10Q_A18Q] (from UniProt P01308 25-53; P01308 90-110) (ligand)”, the IR, binding relative to human insulin was found to be 51%. Consider “single-chain insulin PAK 1894, connecting peptide TGLGSGQ [desB1_B3Q_B10Q_A18Q] (from UniProt P01308 26-53; P01308 90-110) (ligand)”, for which the IR, binding relative to human insulin turned out to be 38%. In the case of “single-chain insulin PAK 1762, connecting peptide AGMGSGP [A18Q_A21G] (from UniProt P01308 25-53; P01308 90-110) (ligand)”, the IR, binding relative to human insulin was 20%. With “single-chain insulin PAK 1769027, connecting peptide LVGSSSGK [A18Q_A21G] (from UniProt P01308 25-53; P01308 90-110) (ligand)”, the IR, binding relative to human insulin is 68%.

As to “single-chain insulin PAK 1740, connecting peptide VGSSSGK [B1G_B3Q_A18Q_A21G] (from UniProt P01308 25-53; P01308 90-110) (ligand)”, the IR, binding relative to human insulin was 90%. On to “single-chain insulin PAK 1875, connecting peptide VGLSSGQ [B28K_B29A_A18Q] (from UniProt P01308 25-53; P01308 90-110) (ligand)”, for which the IR, binding relative to human insulin is 35%. On to “single-chain insulin PAK 1849, connecting peptide TGLGKGR [B29E_A18Q] (from UniProt P01308 25-53; P01308 90-110) (ligand)”, for which the IR, binding relative to human insulin was found to be 60%.

For “single-chain insulin PAK 1879, connecting peptide VGLSSGQ [B29A_A18Q] (from UniProt P01308 25-53; P01308 90-110) (ligand)”, the IR, binding relative to human insulin is 92%. On the same count and under the same terms, in the case of “single-chain insulin PAK 1788, connecting peptide VGLYSGK [A18Q_A21G] (from UniProt P01308 25-53; P01308 90-110) (ligand)” it was 323%.

Another test concerns the target human IGF-1 receptor (human) (UniProt P08069). Description: competition with 125I-IGF-1 (SPA).
“single-chain insulin PAK 1687046, connecting peptide VGSMSGK (from UniProt P01308 25-53; P01308 90-110) (ligand)” returned a Human IGF-1 receptor binding relative to human insulin of 0.1%. “single-chain insulin PAK 1708, connecting peptide VGSRSGK (from UniProt P01308 25-53; P01308 90-110) (ligand)” displayed a Human IGF-1 receptor binding relative to human insulin of 0.2%.

“single-chain insulin PAK 1638077, connecting peptide VGSSRGK (from UniProt P01308 25-53; P01308 90-110) (ligand)” gave a Human IGF-1 receptor binding relative to human insulin of 0.1%. In turn, “single-chain insulin PAK 1709, connecting peptide VGRSSGK (SEQ ID NO:105) (from UniProt P01308 25-53; P01308 90-110) (ligand)” came in with a Human IGF-1 receptor binding relative to human insulin of 0.5%. On to “single-chain insulin PAK 1688028, connecting peptide VGMSSGK (SEQ ID NO:106) (from UniProt P01308 25-53; P01308 90-110) (ligand)”, for which the Human IGF-1 receptor binding relative to human insulin was 0.2%. Regarding “single-chain insulin PAK 1688011, connecting peptide VGLSSGK (from UniProt P01308 25-53; P01308 90-110) (ligand)”, the Human IGF-1 receptor binding relative to human insulin was determined as 0.1%. On the same count and under the same terms, in the case of “single-chain insulin PAK 1766, connecting peptide VGSSSGK (from UniProt P01308 25-53; P01308 90-110) (ligand)” it was 0.05%; in that of “single-chain insulin PAK 1687033, connecting peptide VGSYSGK (from UniProt P01308 25-53; P01308 90-110) (ligand)”, 0.2%.

In turn, “single-chain insulin B(1-29)-TRSSNGR-A(1-21) (from UniProt P01308 25-53; P01308 90-110) (ligand)” displayed a Human IGF-1 receptor binding of 0.1%.

For the origin of these results see patent publication US20090170750A1 (Novo Nordisk, published 2009).
